Data from publication PMC5821843, “Development of a high-throughput assay for rapid screening of butanologenic strains” (Scientific Reports, 2018).

Key:
purified protein [1] = substrate: CCCCO; assay: purified protein; type: biochemical, Pseudothermotoga hypogea; conditions: NADP+ co-substrate, CAPS pH 11.6, 1 mM DTT, 0.1 mM FeCl2, 80 °C, anaerobic, aerobically purified enzyme
purified protein [2] = substrate: CCO; assay: purified protein; conditions: 330 µM NAD+, 8 µM PMS, 330 µM NBT, 0.1% gelatin, 100 mM Tris-HCl pH 8.6, ~22 °C

Protein | Km (purified protein [1]) | kcat (purified protein [1]) | Km (purified protein [2]) | kcat (purified protein [2])
Th ADH (Th ADH_ae) (Pseudothermotoga hypogea DSM 11164 = NBRC 106472) (protein, ORF in pET-33b, N-terminal His6 tag (kept), E. coli BL21(DE3) Rosetta grown anaerobically, purified aerobically; ~42 kDa) MENFVFHNPTKLIFGKGTIPKIGEEIKSFGIKKVLMLYGGGSIKKNGVYDQVVESLKRNGIEWVEVSGVKPNPVLSKVHEAIEVCRKENVEAVLGVGGGSVIDSAKAIAAGVLYEGDIWDAFAGKHKINNALPVFAILTISATGTEMNGNAVVTNEKTQEKWAISAKCLYPRVSIIDPTAQFSLPKEQTVYGAVDAIAHTLEYYFDGSDSDIQNQISESIIRSIMKSTEVLIDNPQDYEARANFAWCATIALNGLTAAGRKGGDWSCHKIEHSLSALYDIAHGAGLAIVFPAWMRYVYKQKPQQFERFAKHVFSIDAVGEEAILKGIDAFKAWLRKVGAPVSLRDVGIPAQDIDRIVENVMKQGPSFGVLKKLGKEDVKQILLIASQ | 34.1 ± 0.6 mM | 3.943 ± 0.0867 s⁻¹ | – | –
Sc ADH (Saccharomyces cerevisiae S288C) (protein) SIPETQKGVIFYESHGKLEYKDIPVPKPKANELLINVKYSGVCHTDLHAWHGDWPLPVKLPLVGGHEGAGVVVGMGENVKGWKIGDYAGIKWLNGSCMACEYCELGNESNCPHADLSGYTHDGSFQQYATADAVQAAHIPQGTDLAQVAPILCAGITVYKALKSANLMAGHWVAISGAAGGLGSLAVQYAKAMGYRVLGIDGGEGKEELFRSIGGEVFIDFTKEKDIVGAVLKATDGGAHGVINVSVSEAAIEASTRYVRANGTTVLVGMPAGAKCCSDVFNQVVKSISIVGSYVGNRADTREALDFFARGLVKSPIKVVGLSTLPEIYEKMEKGQIVGRYVVDTSK | – | – | 22.7 ± 2.9 mM | 20.5 ± 2.37 s⁻¹
